Here are results for 5 molecules from patent publication US20150190494A1 (OXFORD UNIVERSITY INNOVATION, published 2015).

Assay [1] has as its target T1, fH67 (UniProt P08603 321-443).
T1 construct: domain: fH67; Flowed as analyte over immobilised fHbps in SPR; also called factor H
T1 sequence: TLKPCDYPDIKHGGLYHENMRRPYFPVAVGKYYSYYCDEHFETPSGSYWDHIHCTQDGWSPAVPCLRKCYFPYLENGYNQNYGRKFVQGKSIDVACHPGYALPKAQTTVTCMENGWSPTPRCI
As to the kind of experiment: SPR, fHbp immobilised on sensor chip, fH67 flowed over. (In SPR one partner is held on a chip, and binding of the other changes the refractive index at the surface.)
Experimental: Kd values for fH₆₇ binding to the stable V2 fHbps were calculated from the sensogram (fH₆₇ binding to WT V2 fHbp shown in Appendix 3a) and compared to fH₆₇ binding to WT V2 fHbp (Table 3).

Assay [2] has as its target T1, fH67. As to the kind of experiment: SPR, fHbp immobilised on sensor chip, fH67 flowed over; mean ± SD of two determinations.

Changes are numbered by the printed parent chain. Numbers in names are those of the source.

B1: WT V2 fHbp (other)
chain: CSSGGGGVAADIGAGLADALTAPLDHKDKSLQSLTLDQSVRKNEKLKLAAQGAEKTYGNGDSLNTGKLKNDKVSRFDFIRQIEVDGQLITLESGEFQIYKQDHSAVVALQIEKINNPDKIDSLINQRSFLVSGLGGEHTAFNQLPSGKAEYHGKAFSSDDPNGRLHYSIDFTKKQGYGRIEHLKTPEQNVELASAELKADEKSHAVILGDTRYGGEEKGTYHLALFGDRAQEIAGSATVKIREKVHEIGIAGKQ
notes: also called wild type V2 fHbp; V2WT
What is called Kd is the equilibrium constant for the complex coming apart. A low value points to higher affinity. With B1, the “Relative Kd” value in the assay with fH67 [1] amounted to 1 fold against WT V2 fHbp. The molecule also displayed a Kd with fH67 [2] of 3.18 nM.

B2: M6 V2 fHbp (S35G/D107S/V112T/L114F/S137G/G138D) (other)
chain: B1 chain with S30G, D102S, V107T, L109F, S132G, G133D
With B2, the “Relative Kd” value with fH67 [1] was determined as 19.3 fold against WT V2 fHbp. In the assay with fH67 [2], the Kd is 61.3 nM.

B3: M4A V2 fHbp (S35G/D107S/S137G/G138D) (other)
chain: B1 chain with S30G, D102S, S132G, G133D
For B3, the “Relative Kd” value in the assay with fH67 [1] is 2.39 fold against WT V2 fHbp. This molecule displayed a Kd in the assay with fH67 [2] of 7.6 nM.

B4: M4B V2 fHbp (S35G/L114F/S137G/G138D) (other)
chain: B1 chain with S30G, L109F, S132G, G133D
For the molecule B4, the “Relative Kd” value in the assay with fH67 [1] was 3.92 fold against WT V2 fHbp. This molecule showed a Kd with fH67 [2] of 12.5 nM.

B5: M5 V2 fHbp (S35G/D107S/L114F/S137G/G138D) (other)
chain: B1 chain with S30G, D102S, L109F, S132G, G133D
For the molecule B5, the “Relative Kd” value with fH67 [1] stood at 3.84 fold against WT V2 fHbp. In the assay with fH67 [2], this molecule displayed a Kd of 12.2 nM.
